The results in this text go back to the nanobody polyreactivity screen of Harvey et al. (2022).

The nature of this series: yeast display, Sf9 membrane polyspecificity reagent, FACS + sequencing; frameworks hold sequencing errors. An outline of the steps: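 Sorting gates, low and high (top ~1%), were placed on anti-HA fluorescence to track expression and on streptavidin fluorescence to track reagent binding. A clone's polyreactivity label is taken from the gate it came out of. The reagent was 10% biotinylated, detergent-solubilized Sf9 membrane, applied for 1 hour at 4 °C to galactose-induced yeast display cells.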
Consider “QVQLVESGGGLVQAGGSLRLSCAASGRTSWVNAMGWYRQAPGKERELVAAIVSGGTTKYADSVKGRFTISRDNAKNTVYLQMNSLKPEDTAVYYCAVRYSKRSVYTYGFNYWGQGTQVTVSS”, for which the “polyreactivity (PSR sort gate)” value is on record as “high polyreactivity”.
As to “QVQLVESGGGLVQAGGSLRLSCAASGFIFPPYTMGWYRQAPGKERELVAAINSGGSTYYADSVKGRFTISRDNAKNTVYLPMNSLKPEDTAVYYCAADTDRALAHFDYWGQGTQVTVSS”, the “polyreactivity (PSR sort gate)” value was “low polyreactivity”.
For “QVQLVESGGGLVQAGGSLRLSCAASGRTFTGYAMGWYRQAPGKERELVAAISASGGSTYYADSVKGRFTISRDIAKNTVYFQMNSLKPEDTAVYYCAAETWYSVLWEEGYDYWGQGTQVTVSS” the value was “low polyreactivity”; for “QVQLVESGGGLVQAGGSLRLSCAASGRIFGQYAMGWYRQAPGKERELVASISRRGGSKNYADSVKGRFTISRDNAKNTVYLQMNSRKPEDTAVYYCATGRTWILQKLDYWGQGTQVPVSS”, “high polyreactivity”.
For “QVQLVESGGGLVQAGGSLRLSCAASGRTFKTYAMVWYRQAPGKERELVAAISRDGRTYYADSVKGRFTISRDNAKNTVYLQMNSLKPEDTAVYYCNKRSYRNGDYWGQGTQVTVSS” the value was “low polyreactivity”.
Regarding “QVQLQESGGGLVQAGGSLRLSCAASGTISDSGLMGWYRQAPGKERELVAGISSGGITNYADSVKGRFTISRDNAKKTVYLQMNSLKPEDTAVYWGQGTQLTVSS”, the “polyreactivity (PSR sort gate)” value was “low polyreactivity”.
In the case of “QVQLVESGGGLVQAGGSLRLSCAASGSIFRVYAMGWYRQAPGKERELVAAISVSGGSTNYADSVKGRFTISRDNAKNTVYLQMNSLKPEDTAVYYCNRKQQVSSELDYWGQGTQVTVSS” it was “low polyreactivity”; in that of “QVQLVESGGGLVQAGGSLRLSCAASGNTYIRNVMGCYRQAPGKERELVAGIRTGGSTFYADSVKGRFTISRDNAKNPVYLQMNSLKPEDTAVYYCAGYQLRLVYGYGYWGQGTQVTVSS”, “low polyreactivity”.
On to “QVHLVESGGGLVQAGVSLRLSCAASGSTFRRNAMGWYRQEPGKERELVAAISTSGGTTYYADSVKGRFTISRDNAKNTVYLEMNSLKPEDTAVYYCNADVYVWNYKYYSSGQGTQVTVSS”, for which the “polyreactivity (PSR sort gate)” value is reported as “high polyreactivity”.
With “QVQLVESGGGLVQAGGSLRLSCAASGSIFADYAMGWYRQAPGKERELVAAITGSGGRTYYADSVKGRFTISRDNAKNTVYLQMNSLKPEDTAVYYCAAYQVVWDPYTRYDYWGQGTQVTVSS”, the “polyreactivity (PSR sort gate)” value is given as “low polyreactivity”.
Regarding “QVQLVESGGGLVQAGGSLRLSCAASGSTVTYNTMGWYIQAPGKERELVAAISSGGSTYYADSVKGRFTISRDNAKNTVYLQMNSLKPEDTAVYYCAAEHYDYPYDYYCGQGTQVTVSS”, the “polyreactivity (PSR sort gate)” value was “high polyreactivity”.
“QVQLVESGGGLVQAGGSLRLSCAASGITFPGYAMGWYRQAPGKEWELVAAISTSGGSTYYADSVKGRFTISRDNAKNTVYLQMNSLKPEATAVYYCNARLVSYSYEEMDYWGQGTQVTVSS”: the “polyreactivity (PSR sort gate)” value is listed as “low polyreactivity”.
Turning to “QVQLVESGGGLVQAGGSLRLSCAASGRTFTSYAMGWYRQAPGKERELVAAISSSGSSTYYADSVKGRFTISRDNAKNTVYLQMNSLKPEDTAVYYCAVGGSFRYRVQYDYWGQGTQVTVSS”, the “polyreactivity (PSR sort gate)” value is on record as “high polyreactivity”.
For “QVQLVESGGGLVQAGGSLRLSCAASGRTIWYYAKGWYRQAPGKERELVAAITRGGRTNYADSVKGRFTISRDNAKNTVDLQMNSLKPEDTAVYYCAADYRDPAHSYGYWGQGTQVTVSS”, the “polyreactivity (PSR sort gate)” value is given as “high polyreactivity”.
In the case of “QVQLVESGGGLVQAGGSLRLSCAASGYTFRYYAMGWYRQAPGKERELVAAITWSGGSTYYADSVKGRFTISRDNAKNTVYLQMNSLKPEDTAVYYCATDSARVGNFPDPQFDYWGQGTQVTVSS” it was “low polyreactivity”; in that of “QVQLVESGGGLVQAGGSLRLSCAASGSTFVKNVMGWYRQAPGKERELVAGITRGGSTYYADSVKGRFTISRDNAKNTGSLQMNSLKPEDTAVYYCANRYAWDRDYWGQGTQVTVSS”, “high polyreactivity”.
As for “QVQLVESGGGLVQAGGSLRLSCAASGRIFSRYALGWYSPEPGKERELVAAIRSNGGRTYYADSVKGRFTISRDNAKNTVYLQMNSLKPEDTAVYYCAAAGGGKVSYRDYDYWGQGTQVTVSS”, the “polyreactivity (PSR sort gate)” value is listed as “high polyreactivity”.
As to “QVQLVESGGGLVQAGGSLRLICAASGYIFYDYAMGWYRQAPGKERQLVATITSGGRTYADSVKGRFTISRDNAKNTVYLQMNSLKPEDTAVYYCAVDQYGAMDYWGQGTQVTVSS”, the “polyreactivity (PSR sort gate)” value was “low polyreactivity”.
For the sequence “QVQLVESGGGLVQAGGSLRLSCAASGSTFNGYAMGWSRQAPGKERELVAAISWSSGSTYYADSVKGRFTISRDNAKNTVYLQMNSLKPEDTAVYYCNKYYGYHKIKEYDYWGQGTQVTVSS”, the “polyreactivity (PSR sort gate)” value was “high polyreactivity”.
On to “QVQLVESGGGLVQAGGSHRLSCAASGSIFTWNGMGWYRQAPGKERELVAAISNGASTNYADSVKGRFTISRDNAKNTVYLQMNSLKPEDTEVDYCAAKSTGRYDYWGQGTQVTVSS”, for which the “polyreactivity (PSR sort gate)” value is “low polyreactivity”.
“QVQLVESGGGLVQAGGRLRLSCAASGRTFVYNALGWYRQAPGKERELVAAISQSGGSTYYADSVKGRFTISRDNAKITVYFQMNSLKPEDTAVYYCADRYKTGSYVRYNFWGQGTQVTVSS”: the “polyreactivity (PSR sort gate)” value was “high polyreactivity”.
With “IIQAGGSLRLSCAASGRTLSGYAMGWYRQAPGKERELIADITSGGSTYYADSVKGRFTISRDNAKNTVYLQMNSLKPEDTAVYYCAAERQIRSFWSSRTYEFGYWGQGTQVTVSS”, the “polyreactivity (PSR sort gate)” value is given as “low polyreactivity”.
For “QVQLVESGGGLVQAGGSLRLSCAASGSIFFYYAMGWYRPAPGKERELVAAITSGGTTNYADSVNGRFTISRDNAKNTVYLQMNSLKPEDTAVYYCAVAGPRYAFFEYDYWGQGTQVTVSS”, the “polyreactivity (PSR sort gate)” value is recorded as “low polyreactivity”.
In the case of “QVQLVESGGGLVQAGGSLRLSCAASGLTFPIYAMGWYRQAPGKEREFVAVNTTSGGSTYYADSVKGRFTISRDNAKNTVYLQMNILKPEDTAVYYCNARPEYTYWPGYIYWGEGTQVTVSS”, the “polyreactivity (PSR sort gate)” value is reported as “high polyreactivity”.
On to “QVQLVESGGGLVQAGGSLRLSCAASGSIFWIYAMGWYRQAPGKERELVARITWTGGRTYYADSVKGRFTISRDNAKNTVYLQMNSLKPEDTAVYYCAVTSYRQRGAFDYWGQGSQVTVSS”, for which the “polyreactivity (PSR sort gate)” value is recorded as “high polyreactivity”.
Turning to “QVQLVESGGGLVQAGGSLRLSCAASGRNFYGYTMGWYRQAPGKERELVAAITSGGSTYYADSVKGRFTISRDNAKNTVYLQMNSLKPEDTAVYYCNAKYNGYYRRFSEYDYWGQGTQVTVSS”, the “polyreactivity (PSR sort gate)” value was “high polyreactivity”.
In the case of “QVQLVESGGGLVQAGGSLRLSCAASGSIFKFYTMGWYRQAAGKEWELVATISRSGGGTFYADSVKGRFTISRDNAKNTVYLQMNSLKPEDTAVYYCAADPAFTHYPYGYGYWGQGTQVTVSS” it was “low polyreactivity”.
In the case of “QVQLVESGGGLVQAGGSLRLSCAASGRTFGGYAMGWYRQAPGKERELVAAIRRSGGSTYYADSVKGRFTISRDNAKNTVYLQMNSLKPEDTAVYYCNVLRFSTGGYRYVYDYDYWGQGTQVTVSS” it was “high polyreactivity”; in that of “HVRLQESVGGLVQAGGSLRQSCAASGAISPYYDMGWYRLAPGKEREFVASIAHGGTTYYADSVKGRFTTSRDNAKNTVYLQMNSLKPEDTAVYYCAVAYDVWHSHIYRGQGTQVTVSS”, “high polyreactivity”.
In the case of “QVQLVESGGGLIQAVRSHRLSFAASGSTFRRYAMRWYRQEPGKEREISTSDGSTYYADSVKGRFTISRENAKNTVYLQMNSLKPEDTAVYYCAADGYRKLIEDITDDYCGQGTQVTVSS”, the “polyreactivity (PSR sort gate)” value is given as “low polyreactivity”.
Turning to “QVQLVESGGGLVQAGGSLRLSCAASGITFQSNDMGWYRQAPGKERELVAAISWSDDTTYYADSVKGRFTISRDNAKNTVYLQMNSLKPEDTAVYYCAAVYDSKSYYYWGQGTQVTVSS”, the “polyreactivity (PSR sort gate)” value is on record as “high polyreactivity”.
Consider “QVQLVESGGGLVKAGGSLRLSCAASGRTFGDNAMGWYRQAPGKERELVAAIRWGGGSTYYADSVKGRFTISRDNAKNTVYLQMNSLKPEDTAVYYCAKKGWSSHDRAWYIYDYWGQGSQVTVSS”, for which the “polyreactivity (PSR sort gate)” value is given as “low polyreactivity”.
In the case of “QVQLVESGGGLVQAGGSLRLSCAASGFTCKYYAMGWYRQAPGKERELVASINWSGGRTSYADSVKGRFTISRDNAKNTVYLQMNSLKREDTAVYYCARTPAGRGEYWGQGSQVTVSS”, the “polyreactivity (PSR sort gate)” value is recorded as “low polyreactivity”.
In the case of “QVQLVESGGGLVQAGGSLRLSCAASGITFLNYAMGWYRQAPGKERELVAAISWSRGRTYYADSVKGRFTISRDNAKNTGYLQMNSLKPEDTAVYDCAADRGVNSYGYWGQGTQVTVSS” it was “high polyreactivity”.
In the case of “QVQLQESGGGLMQAGGSQRLSCAASGSISYYSDMGWYRQSPGKEREFVAGIGYGTTTNYADSVKGRFTTSRDNAKNTVYLQMISMKPEDTAVYYCAAYQGNGYEFYYWGQGTQVTVRS”, the “polyreactivity (PSR sort gate)” value is given as “low polyreactivity”.
Turning to “QVQLVESGGGLVQAGGSLRLSSAASGIFSYYAIGWYRQAPGKERELVAAISSSGGSTYYADSVKGRFTISRDNAKNTVYLQMNSLKPEDTAVYYCAVSGGTSRRYYYWGLGTQVTVSS”, the “polyreactivity (PSR sort gate)” value is on record as “high polyreactivity”.
In the case of “QVKLVESGGGLVQAGGSLRLSCAASGLIFQNYAMVWYRQAPGKERELVAAISRRGGRTNYADSVKGRFTISRDNAKNNVYLQMKSLKPEDTAVYYCNAKARQSYYYRFDYWGQGTQVTVSS”, the “polyreactivity (PSR sort gate)” value was “high polyreactivity”.
For the sequence “QVQLVESGGGLVQAGGSLRLSCAASGSNFAAYTMGWYRQAPGKERELVAAISVSTVSTYYADSVKGRFTISRDNAKNTVYLQMYSLTPEDTAVYYCIADATDSYPEKYEHDSWGQGTQVTVSS”, the “polyreactivity (PSR sort gate)” value is on record as “low polyreactivity”.
“QVQLVESGGGIVQAGGSLRLSCAASGLTFYGYTMGWYRQAPGKERELVAAISWSGGNTYYADSVKGRFTISRDNAKNTVYLQMNSLKPDDTAVYYCAAVYVYLGVYARYPIWGYYYWGQGTQVTVSS”: the “polyreactivity (PSR sort gate)” value was “low polyreactivity”.
“QVQLVESGGGLVQAGGSLRLSCAASGSIFTVNAMGWYRQAPGKERELVAAISSGGSTHYADSVKGRFTISRDNAKNTVYLQMNSLKPEDTAVYYCAAVYVPYYGYSTRYDYWGQGTQVTVSS”: the “polyreactivity (PSR sort gate)” value is “low polyreactivity”.
As to “QAQLVESGGGLVQAGGSLRLSCAASGYTFTANVMGWYRQAPGKERELVAAISWSGTSTSYADSVKGRFTISRDNAKNNVYLQMNSLKPEDTAVYYCNTVPYYTGSNGYWGQGTQVTVSS”, the “polyreactivity (PSR sort gate)” value is listed as “low polyreactivity”.
